What is called Kd is the concentration at which binding is half-saturated.

Series [1] deals with T1, MbpAgo WT (Mucilaginibacter paludis, UniProt H1YCU5 1-795).
T1 sequence: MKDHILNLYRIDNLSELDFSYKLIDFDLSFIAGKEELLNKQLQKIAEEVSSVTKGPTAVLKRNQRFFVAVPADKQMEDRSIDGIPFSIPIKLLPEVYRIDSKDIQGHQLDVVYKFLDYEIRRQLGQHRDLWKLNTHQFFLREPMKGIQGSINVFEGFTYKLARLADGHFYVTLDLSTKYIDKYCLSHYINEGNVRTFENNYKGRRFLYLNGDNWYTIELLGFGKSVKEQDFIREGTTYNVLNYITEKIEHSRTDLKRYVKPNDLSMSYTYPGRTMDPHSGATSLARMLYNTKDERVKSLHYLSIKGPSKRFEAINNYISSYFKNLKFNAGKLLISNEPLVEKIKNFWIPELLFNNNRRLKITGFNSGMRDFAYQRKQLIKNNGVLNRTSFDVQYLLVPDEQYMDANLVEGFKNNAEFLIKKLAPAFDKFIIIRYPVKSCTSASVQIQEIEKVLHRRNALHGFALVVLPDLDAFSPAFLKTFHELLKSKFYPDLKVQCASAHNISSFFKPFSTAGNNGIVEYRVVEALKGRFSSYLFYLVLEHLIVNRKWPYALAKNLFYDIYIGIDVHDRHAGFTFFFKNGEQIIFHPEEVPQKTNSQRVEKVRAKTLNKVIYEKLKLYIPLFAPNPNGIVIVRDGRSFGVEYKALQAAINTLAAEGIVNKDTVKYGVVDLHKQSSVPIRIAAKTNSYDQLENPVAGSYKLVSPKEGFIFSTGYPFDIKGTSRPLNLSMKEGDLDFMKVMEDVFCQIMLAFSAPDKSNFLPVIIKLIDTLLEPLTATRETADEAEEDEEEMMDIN
Kind of series: EMSA.

Series [2] has as its target T1, MbpAgo WT. Kind of series: EMSA. This is another data set of the same source. For orientation: In EMSA bound probe runs differently from free probe, usually more slowly.

Like-named read-outs stand apart in the source and are kept apart here.

On to TGAGGTAGTAGGTTGT (ssDNA, 5' phosphate) [T-gDNA iFAM, 5'P], for which the Kd with MbpAgo WT [1] came out at 111 ± 3 nM; in the series with MbpAgo WT [2], 205 ± 7.6 nM.

For the molecule TGAGGTAGTAGGTTGT (ssDNA) [T-gDNA iFAM, 5'OH], the results for the Kd in the series with MbpAgo WT [1] and with MbpAgo WT [2] were 148 ± 5.8 nM and 162 ± 4.8 nM, respectively.

The values are drawn from paper PMC9122594.
